Reference: publication PMC4491180

Tests used:
[1] = target: wild-type Grb2 (growth factor receptor-bound protein 2), bacterially expressed and purified (UniProt P62993); test: MST; monomer–dimer equilibrium of Grb2 in the presence of the SOS1 peptide (…); apparent Kd, dimer to monomers
[2] = target: wild-type Grb2 (growth factor receptor-bound protein 2), bacterially expressed and purified (UniProt P62993); test: MST; unlabelled Grb2 (7.3 nM to about 30 μM) titrated into 100 nM Atto488-labelled Grb2; 20 °C; PBS without calcium and magnesium, 0.01% Tween 20; apparent Kd, dimer to monomers

Kd [1]: 700 nM
Kd [2]: 760 nM
Substance: wild-type Grb2 (growth factor receptor-bound protein 2), bacterially expressed and purified (from UniProt P62993 1-217) (natural protein)
